Assay results published in the NTF2 design screens of Basanta et al. (2020).

Assay: protease stability score; higher = more stable; yeast display proteolysis, trypsin and chymotrypsin;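 note: log10 excess protease needed over predicted unfolded state with 0 meaning unfolded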

Sequence	protease stability score
DEEEAKKVVDQAVKYFQNGDAEKLRDLGKEGVKYRVADVEAHGPEVVLKAVERLKRQGVKIQYRKVEVKGDTVTTQLDYQQGDRTFTVTIEAEVKGGKIDRVEADANEDAKKIVKHG	0.172
DEEEAKKVVETAVKYLQKGNVKQLKDIGHEGVDYQVADNKKKGPDAIEDVLRYLEKLGVRMEVKKQEVKGDTAHTVVDYQQGDTKVRATVEADIQGGRIDRVQVNVPETLKKILKHG	-0.284
DEEEAKRQMEEFAHGDPDKMVNNVDENADAVVGDRRFHGRKDIKEWAERMKKRIDTNKYEHVEQQGDKVDAIYNITVNGQELRFKLVIKIDNGRVEYVKVDVTDEENLKILQEIFS	0.121
DEEEAQDVLQEVFKAVSRGDEDRAEQLADPNAKAEYGDKSYHGKKVIKEAVRRMSEQADHFEFKHIDHDEGRVVFDMEIEFNGQTFKVKVKAQAHNGRAQNFKFQFRSEDDLERLQS	-0.23
DEEEAQKFRKHAKSNDQDNMRRMMDEDVRVIVGDFEVQGREDAEENLLRLNQRVDHISVKSIDVQGEHVTVDVEMTIDGTKFVVVYVVQFHNGRIKQLDLRARDEKDEKAFRRAVG	0.234
DEEEASTIAKVFRTNNWEELVRLADENAKVKVGDKEVHGRHVVDEMVKLISDAADTIKYDSYTVQGEKIEMVVKLVINGQKVEFKLTARAHNGRIKEIVLSVRDEDQKRKFEKEDG	0.783
DEEEDAEKLLERREKVFRQGDPDQMQRMMDPNARIKVGDREVHGREEVDRTLLEQARKADHIRFELKDMRVQGDKVVLDVHVKFEVNGRHQSRQVQYVAQFHNGRYTFRSARER	0.047
DEEEDEKFVEFLKNVERGNEDKLRELVPPDAKNQVGDTVVEGRDEWLKKLTSELKKSRVTYNVKSVSASNGRMSLVVDVTVDENGRPQKRDLRIDATVHNGKWQKVHLKFDS	0.342
DEEEDKKMLDNINTIWERGNPDEIEKLIDPNARVQVGDKTLHGREQIKHFLKRLHERIDHFEYQSVSAHNGRMRARVRFRVNGVHVRMEIDATYNNGKVKKMEVRVTDEKHLERARK	0.741
DEEEDKKVKHLITNIREGNSDDFIKMMDPNARLVYGDQRVKGTSQAREFVHSLHEQARIDLEVKHITAHNGRIDVTVKMELEVNGQPYRFSVNVIVHIRNGKVQEVVFQFDPRDEQRNRK	1.24
DEEEDNELAKRAAKAMSTNDEDQVENLVDKDVRLEVGDKTYTGDEQVRSAIQEFRRRADHVKVNKLKVEDGQANLRFTVNWNGVELDMVIHVKATNGKIKTVTIKVRDPEQERRFKS	0.024
DEEEDQRVAVDALKVIWRGDSDEAQKLFDPNARFRVGDTVYHGRENVKTALRRFRERADHIRVDHIETQGEHAVAKATVHSNGRTRRLRVHATVHNGRAKEAEVRDS	0.012
DEEEEARKFVKTAQDKARQGNEDQLQNMADKDARVEVGDKVIHGRNEAVKTRREENKRYDRVHNDVQHITLRPGQITIRMRVHVEHNGQRRHREFVFVMHNNNGEWHVEFVEVK	-0.045
DEEEEHKFEDQVRTNDPDKQRKQLDKDVHVEYGDRTYHGRDAVDKWYKKMKKQVDHVHYHDIRIRNGHATLQNEANVNGRNVRMHVDIEVHNGRLKRMTINFRDEEDTKLFDRLVR	0.048
DEEEEKQLEDIWKENDWQKWANDADPNVRVNIGDETLHGREDLQRWAQLVRKRYDHVKIESVRFHNGRADVEVNVVVDGEQFRYKLTIQLHNGRVKHMKIQATDEQVKTLLDQMRS	1.59
DEEEEKRMTKILEHNDFHKLADNADPNVQINIGDKHIHGRDQAQTFFKQMQKAADHWSIRTMNVRNGHIVVDLVMNVNGQNIRFNLRIERRNGHIKSASVQFTDPDQKRQFDENRS	0.599
DEEEELRRAVKAIKQYMTGNEQEVSKMADPNVKIQVGEKRIHGREQLRQEVKRLHDTVDHIEVLSITHTGNSAQVDARVEVDGRVQRFVLRVVMHNGRITSIVVEVTDEDRFKNMVK	1.2
DEEEFKKHAEQVIRILEHGDPDQMKKNADPNAKIEVGDRTYHGHDRMREFVKRLRDRVDHMSVETWSAHNGRIHIHFRVDINGKDVRVVMQLTVDNGKIKRLRVKSG	0.914
DEEEHAKEFVKRLDKVNKKNDEESFEDLADENATFRYGDKTYRGREDMRKLVQDLRKRADHADVKLTRLELHNGQVRAEIDMRFRHDGRTHKDVFDAQLKVTNGTVKLTNLNQS	-0.059
DEEEHAKQFLDKMHRAFENNNKDEVRKLADENARFEYGDKTYHGDEEFAKWMREIRERVDRVEMDLRSIEREGEKLNIRFEVKYKHNGNSDTQRWVFVIKHHNGDYVIEKLREQ	1.22
